Test results taken from patent US12134634B2.

Columns and labels:
[1] = target: miRFP670nano-DEVD-miRFP720 FRET-based reporter for caspase-3 activity (… SEQUENCE)
[2] = target: NIR PKA biosensor (… SEQUENCE)
[3] = target: NIR JNK biosensor (… SEQUENCE)

Substance: caspase-3 (from UniProt P42574) (enzyme)
- FRET/miRFP670nano fluorescence ratio detected at 725 nm/667 nm [1]: 1.65 fold

Substance: Protein Kinase A (PKA) (enzyme)
- FRET/miRFP670nano fluorescence ratio [2]: 33%

Substance: c-Jun N-terminal kinase (JNK) (enzyme)
- FRET/miRFP670nano fluorescence ratio [3]: 35%
